# T1: purified streptococcal antigen (SA) I/II (Streptococcus mutans, UniProt P23504 39-1532)
# T1 construct: Purified antigen as coated on ELISA plates; also called SA 1/11; purified SA I/II
# T1 sequence (looked up): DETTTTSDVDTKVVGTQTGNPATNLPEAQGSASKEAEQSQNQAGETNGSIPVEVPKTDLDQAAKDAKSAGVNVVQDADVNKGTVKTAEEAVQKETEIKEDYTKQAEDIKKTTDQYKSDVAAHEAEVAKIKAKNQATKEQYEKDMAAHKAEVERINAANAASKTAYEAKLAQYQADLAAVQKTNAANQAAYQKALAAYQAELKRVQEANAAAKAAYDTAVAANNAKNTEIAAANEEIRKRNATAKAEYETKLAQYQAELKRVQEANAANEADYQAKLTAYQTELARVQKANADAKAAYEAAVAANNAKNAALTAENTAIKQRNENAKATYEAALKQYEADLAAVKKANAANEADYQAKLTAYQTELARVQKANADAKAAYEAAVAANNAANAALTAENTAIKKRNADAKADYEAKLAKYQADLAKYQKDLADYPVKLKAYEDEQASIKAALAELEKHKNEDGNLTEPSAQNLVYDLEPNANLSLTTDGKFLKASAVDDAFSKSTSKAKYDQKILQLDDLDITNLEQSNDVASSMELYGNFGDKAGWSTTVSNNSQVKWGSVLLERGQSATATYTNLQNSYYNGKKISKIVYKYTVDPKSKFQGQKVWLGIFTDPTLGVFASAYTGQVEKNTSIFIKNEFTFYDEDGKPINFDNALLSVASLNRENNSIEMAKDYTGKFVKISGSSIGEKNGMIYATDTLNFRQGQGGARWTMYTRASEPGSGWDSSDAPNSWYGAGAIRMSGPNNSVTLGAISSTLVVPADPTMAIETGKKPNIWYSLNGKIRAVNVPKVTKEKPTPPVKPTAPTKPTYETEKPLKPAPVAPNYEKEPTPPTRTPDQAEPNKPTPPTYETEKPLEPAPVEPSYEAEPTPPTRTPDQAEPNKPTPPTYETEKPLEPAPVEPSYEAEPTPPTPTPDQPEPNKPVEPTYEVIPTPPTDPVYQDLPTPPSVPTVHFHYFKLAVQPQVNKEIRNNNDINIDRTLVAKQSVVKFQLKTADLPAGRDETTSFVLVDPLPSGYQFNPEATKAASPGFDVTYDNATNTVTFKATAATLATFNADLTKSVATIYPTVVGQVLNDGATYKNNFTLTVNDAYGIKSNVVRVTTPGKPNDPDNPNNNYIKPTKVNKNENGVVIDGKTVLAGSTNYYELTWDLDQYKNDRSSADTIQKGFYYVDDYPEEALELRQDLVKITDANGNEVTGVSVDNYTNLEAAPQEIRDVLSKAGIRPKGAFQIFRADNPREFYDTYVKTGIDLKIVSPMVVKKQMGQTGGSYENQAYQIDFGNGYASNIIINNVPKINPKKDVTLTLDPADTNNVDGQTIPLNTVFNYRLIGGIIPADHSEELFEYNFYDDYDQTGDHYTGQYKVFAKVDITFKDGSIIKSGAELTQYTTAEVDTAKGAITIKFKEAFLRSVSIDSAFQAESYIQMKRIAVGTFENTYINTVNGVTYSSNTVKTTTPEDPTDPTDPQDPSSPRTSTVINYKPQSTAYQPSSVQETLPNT
# Experiments:
# [1] = molecular target: T1, purified streptococcal antigen (SA) I/II; assay: ELISA on purified SA I/II, plant extract
# [2] = molecular target: T1, purified streptococcal antigen (SA) I/II; assay: ELISA on SA I/II, plant extract
Binder,binding result [1],binding result [2]
"protection protein (amino acids 1-606 of rabbit polyimmunoglobulin receptor) expressed alone in plants (receptor, also called plants expressing only protection protein; free protection protein) QSSLLGPSSIFGPGEVNVLEGDSVSITCYYPTTSVTRHSRKFWCREEESGRCVTLASTGYTSQEYSGRGKLTDFPDKGEFVVTVDQLTQNDSGSYKCGVGVNGRGLDFGVNVLVSQKPEPDDVVYKQYESYTVTITCPFTYATRQLKKSFYKVEDGELVLIIDSSSKEAKDPRYKGRITLQIQSTTAKEFTVTIKHLQLNDAGQYVCQSGSDPTAEEQNVDLRLLTPGLLYGNLGGSVTFECALDSEDANAVASLRQVRGGNVVIDSQGTIDPAFEGRILFTKAENGHFSVVIAGLRKEDTGNYLCGVQSNGQSGDGPTQLRQLFVNEEIDVSRSPPVLKGFPGGSVTIRCPYNPKRSDSHLQLYLWEGSQTRHLLVDSGEGLVQKDYTGRLALFEEPGNGTFSVVLNQLTAEDEGFYWCVSDDDESLTTSVKLQIVDGEPSPTIDKFTAVQGEPVEITCHFPCKYFSSEKYWCKWNDHGCEDLPTKLSSSGDLVKCNNNLVLTLTLDSVSEDDEGWYWCGAKDGHEFEEVAAVRVELTEPAKVAVEPAKVPVDPAKAAPAPAEEKAKARCPVPRRRQWYPLSRKLRTSCPEPRLLAEEVAVQSAE",no binding,–
"mouse J chain expressed alone in plants (other, UniProt P01592 22-159, looked up, Tested as crude plant extract; also called plants expressing only J chain) GDDEATILADNKCMCTRVTSRIIPSTEDPNEDIVERNIRIVVPLNNRENISDPTSPLRRNFVYHLSDVCKKCDPVEVELEDQVVTATQSNICNEDDGVPETCYMYDRNKCYTTMVPLRYHGETKMVQAALTPDSCYPD",–,no binding

# Reference: US20020159958A1 (REGENTS OF UNIVERSITY OF CALIFORNIA, published 2002)
